Test results: the supplement of paper PMC12855868

B1: library; numbered along this chain (parent)
chain: MAAAGGARLLRAASAVLGGPAGRWLHHAGSRAGSSGLLRNRGPGGSAEASRSLSVSARARSSSEDKITVHFINRDGETLTTKGKVGDSLLDVVVENNLDIDGFGACEGTLACSTCHLIFEDHIYEKLDAITDEENDMLDLAYGLTDRSRLGCQICLTKSMDNMTVRVPETVADARQSIDVGKTS

Variants of: B1
Experiment: scaled log2 fold change in cell abundance, elesclomol vs control (0 = silent mean, 1 = nonsense mean) (scaled log2 ratio); higher = higher viability under elesclomol (loss of FDX1 cuproptosis function)
Conditions: glucose 10 mM
[1] = with ABC1 FDX1 KO, elesclomol 5 nM, 14 days
[2] = with HEK293T FDX1 KO, elesclomol 40 nM, 11 days
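Note: variant abundance is its share of total variant reads in each endpoint sample, from next-generation sequencing of the integrated ORF PCR-amplified out of genomic DNA.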

MAAAGGARLLRAASAVLGGPAGRWLHHAGSRAGSSGLLRNRGPGGSAEASRSLSVSARARSSSEDKITVHFINRDGETLTTKGKVGDSLLDVVVENNLDIDGFGACEGTLACSTCHLIFSDHIYEKLDAITDEENDMLDLAYGLTDRSRLGCQICLTKSMDNMTVRVPETVADARQSIDVGKTS [E120S]
scaled log2 fold change [1]: 0.0771
scaled log2 fold change [2]: -1.62

MAAAGGARLLRAASAVLGGPAGRWLHHAGSRAGSSGLLRNRGPGGSAEASRSLSVSARARSSSEDKITVHFINRDGETLTTKGKVGDSLLDVVVENNLDIDGFGACEGTLACSTCHLIFRDHIYEKLDAITDEENDMLDLAYGLTDRSRLGCQICLTKSMDNMTVRVPETVADARQSIDVGKTS [E120R]
scaled log2 fold change [1]: 0.278
scaled log2 fold change [2]: -0.473

MAAAGGARLLRAASAVLGGPAGRWLHHAGSRAGSSGLLRNRGPGGSAEASRSLSVSARARSSSEDKITVHFINRDGETLTTKGKVGDSLLDVVVENNLDIDGFGACEGTLACSTCHLIFIDHIYEKLDAITDEENDMLDLAYGLTDRSRLGCQICLTKSMDNMTVRVPETVADARQSIDVGKTS [E120I]
scaled log2 fold change [1]: -0.276
scaled log2 fold change [2]: 0.524

MAAAGGARLLRAASAVLGGPAGRWLHHAGSRAGSSGLLRNRGPGGSAEASRSLSVSARARSSSEDKITVHFINRDGETLTTKGKVGDSLLDVVVENNLDIDGFGACEGTLACSTCHLIFGDHIYEKLDAITDEENDMLDLAYGLTDRSRLGCQICLTKSMDNMTVRVPETVADARQSIDVGKTS [E120G]
scaled log2 fold change [1]: 0.367
scaled log2 fold change [2]: -0.0815

MAAAGGARLLRAASAVLGGPAGRWLHHAGSRAGSSGLLRNRGPGGSAEASRSLSVSARARSSSEDKITVHFINRDGETLTTKGKVGDSLLDVVVENNLDIDGFGACEGTLACSTCHLIFFDHIYEKLDAITDEENDMLDLAYGLTDRSRLGCQICLTKSMDNMTVRVPETVADARQSIDVGKTS [E120F]
scaled log2 fold change [1]: 0.141
scaled log2 fold change [2]: -0.0751

MAAAGGARLLRAASAVLGGPAGRWLHHAGSRAGSSGLLRNRGPGGSAEASRSLSVSARARSSSEDKITVHFINRDGETLTTKGKVGDSLLDVVVENNLDIDGFGACEGTLACSTCHLIFTDHIYEKLDAITDEENDMLDLAYGLTDRSRLGCQICLTKSMDNMTVRVPETVADARQSIDVGKTS [E120T]
scaled log2 fold change [1]: 0.0538
scaled log2 fold change [2]: -0.0827

MAAAGGARLLRAASAVLGGPAGRWLHHAGSRAGSSGLLRNRGPGGSAEASRSLSVSARARSSSEDKITVHFINRDGETLTTKGKVGDSLLDVVVENNLDIDGFGACEGTLACSTCHLIFDDHIYEKLDAITDEENDMLDLAYGLTDRSRLGCQICLTKSMDNMTVRVPETVADARQSIDVGKTS [E120D]
scaled log2 fold change [1]: 0.203
scaled log2 fold change [2]: 0.978

MAAAGGARLLRAASAVLGGPAGRWLHHAGSRAGSSGLLRNRGPGGSAEASRSLSVSARARSSSEDKITVHFINRDGETLTTKGKVGDSLLDVVVENNLDIDGFGACEGTLACSTCHLIFQDHIYEKLDAITDEENDMLDLAYGLTDRSRLGCQICLTKSMDNMTVRVPETVADARQSIDVGKTS [E120Q]
scaled log2 fold change [1]: -0.192
scaled log2 fold change [2]: 0.816

MAAAGGARLLRAASAVLGGPAGRWLHHAGSRAGSSGLLRNRGPGGSAEASRSLSVSARARSSSEDKITVHFINRDGETLTTKGKVGDSLLDVVVENNLDIDGFGACEGTLACSTCHLIFWDHIYEKLDAITDEENDMLDLAYGLTDRSRLGCQICLTKSMDNMTVRVPETVADARQSIDVGKTS [E120W]
scaled log2 fold change [1]: 0.298
scaled log2 fold change [2]: -0.149

MAAAGGARLLRAASAVLGGPAGRWLHHAGSRAGSSGLLRNRGPGGSAEASRSLSVSARARSSSEDKITVHFINRDGETLTTKGKVGDSLLDVVVENNLDIDGFGACEGTLACSTCHLIFPDHIYEKLDAITDEENDMLDLAYGLTDRSRLGCQICLTKSMDNMTVRVPETVADARQSIDVGKTS [E120P]
scaled log2 fold change [1]: 0.108
scaled log2 fold change [2]: 0.193

MAAAGGARLLRAASAVLGGPAGRWLHHAGSRAGSSGLLRNRGPGGSAEASRSLSVSARARSSSEDKITVHFINRDGETLTTKGKVGDSLLDVVVENNLDIDGFGACEGTLACSTCHLIFKDHIYEKLDAITDEENDMLDLAYGLTDRSRLGCQICLTKSMDNMTVRVPETVADARQSIDVGKTS [E120K]
scaled log2 fold change [1]: 0.0347
scaled log2 fold change [2]: 0.542

MAAAGGARLLRAASAVLGGPAGRWLHHAGSRAGSSGLLRNRGPGGSAEASRSLSVSARARSSSEDKITVHFINRDGETLTTKGKVGDSLLDVVVENNLDIDGFGACEGTLACSTCHLIFVDHIYEKLDAITDEENDMLDLAYGLTDRSRLGCQICLTKSMDNMTVRVPETVADARQSIDVGKTS [E120V]
scaled log2 fold change [1]: 0.256
scaled log2 fold change [2]: -0.849

MAAAGGARLLRAASAVLGGPAGRWLHHAGSRAGSSGLLRNRGPGGSAEASRSLSVSARARSSSEDKITVHFINRDGETLTTKGKVGDSLLDVVVENNLDIDGFGACEGTLACSTCHLIFMDHIYEKLDAITDEENDMLDLAYGLTDRSRLGCQICLTKSMDNMTVRVPETVADARQSIDVGKTS [E120M]
scaled log2 fold change [1]: -0.223
scaled log2 fold change [2]: 0.0763

MAAAGGARLLRAASAVLGGPAGRWLHHAGSRAGSSGLLRNRGPGGSAEASRSLSVSARARSSSEDKITVHFINRDGETLTTKGKVGDSLLDVVVENNLDIDGFGACEGTLACSTCHLIFLDHIYEKLDAITDEENDMLDLAYGLTDRSRLGCQICLTKSMDNMTVRVPETVADARQSIDVGKTS [E120L]
scaled log2 fold change [1]: 0.202
scaled log2 fold change [2]: 0.102

MAAAGGARLLRAASAVLGGPAGRWLHHAGSRAGSSGLLRNRGPGGSAEASRSLSVSARARSSSEDKITVHFINRDGETLTTKGKVGDSLLDVVVENNLDIDGFGACEGTLACSTCHLIFHDHIYEKLDAITDEENDMLDLAYGLTDRSRLGCQICLTKSMDNMTVRVPETVADARQSIDVGKTS [E120H]
scaled log2 fold change [1]: -0.0176
scaled log2 fold change [2]: -0.794

MAAAGGARLLRAASAVLGGPAGRWLHHAGSRAGSSGLLRNRGPGGSAEASRSLSVSARARSSSEDKITVHFINRDGETLTTKGKVGDSLLDVVVENNLDIDGFGACEGTLACSTCHLIFNDHIYEKLDAITDEENDMLDLAYGLTDRSRLGCQICLTKSMDNMTVRVPETVADARQSIDVGKTS [E120N]
scaled log2 fold change [1]: 0.109
scaled log2 fold change [2]: 0.835
